Where two headings read alike, the source gives them in different places.
Columns and labels:
Assay in all cases: FRET
[1] = target: T1, XPF-Δnuc (HhH2 domain);PCNA heterotrimer (Sulfolobus solfataricus P2;Sulfolobus …, UniProt Q7LXL5;P57766;Q97Z84;P57765 =M+148-233;1-249;1-245;1-244, internal_change|)
T1 sequence 1: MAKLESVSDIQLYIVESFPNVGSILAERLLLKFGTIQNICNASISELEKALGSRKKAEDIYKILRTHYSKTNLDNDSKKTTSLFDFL
T1 sequence 2: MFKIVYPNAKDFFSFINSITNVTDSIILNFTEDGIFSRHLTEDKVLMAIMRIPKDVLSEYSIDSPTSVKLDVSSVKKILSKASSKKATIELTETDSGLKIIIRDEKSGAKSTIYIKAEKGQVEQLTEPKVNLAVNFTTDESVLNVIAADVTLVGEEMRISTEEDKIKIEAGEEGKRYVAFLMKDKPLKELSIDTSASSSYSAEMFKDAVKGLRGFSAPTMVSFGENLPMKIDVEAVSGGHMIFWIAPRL
T1 sequence 3: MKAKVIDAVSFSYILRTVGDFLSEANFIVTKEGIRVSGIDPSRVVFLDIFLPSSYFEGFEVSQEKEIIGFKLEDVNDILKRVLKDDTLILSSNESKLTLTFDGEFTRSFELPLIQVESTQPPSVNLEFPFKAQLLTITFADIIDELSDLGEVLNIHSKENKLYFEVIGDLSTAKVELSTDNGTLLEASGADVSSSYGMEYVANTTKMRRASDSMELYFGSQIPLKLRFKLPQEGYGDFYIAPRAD
T1 sequence 4: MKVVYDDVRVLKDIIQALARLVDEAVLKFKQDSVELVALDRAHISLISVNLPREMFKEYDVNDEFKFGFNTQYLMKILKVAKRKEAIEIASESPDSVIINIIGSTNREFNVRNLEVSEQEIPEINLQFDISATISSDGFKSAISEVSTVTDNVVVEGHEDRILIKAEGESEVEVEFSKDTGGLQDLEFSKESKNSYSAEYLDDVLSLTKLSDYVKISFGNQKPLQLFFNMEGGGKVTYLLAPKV

XPF-wt;PCNA heterotrimer [2] = target: T2, XPF-wt;PCNA heterotrimer (Saccharolobus (Sulfolobus) …, UniProt Q7LXL5;P57766;Q97Z84;P57765 1-233;1-249;1-245;1-244, |)
T2 sequence 1: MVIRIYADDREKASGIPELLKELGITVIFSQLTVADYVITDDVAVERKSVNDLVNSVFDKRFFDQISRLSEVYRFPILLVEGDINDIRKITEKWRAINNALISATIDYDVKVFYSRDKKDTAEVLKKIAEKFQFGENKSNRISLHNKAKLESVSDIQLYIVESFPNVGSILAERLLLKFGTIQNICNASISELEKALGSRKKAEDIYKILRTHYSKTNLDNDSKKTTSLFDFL
T2 sequence 2: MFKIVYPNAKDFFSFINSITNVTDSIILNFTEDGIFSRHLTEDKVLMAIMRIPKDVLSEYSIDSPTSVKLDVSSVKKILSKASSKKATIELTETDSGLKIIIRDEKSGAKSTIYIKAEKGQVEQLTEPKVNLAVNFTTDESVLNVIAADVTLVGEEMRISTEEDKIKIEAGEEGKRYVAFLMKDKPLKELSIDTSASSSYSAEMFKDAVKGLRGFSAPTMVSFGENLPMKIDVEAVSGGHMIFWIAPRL
T2 sequence 3: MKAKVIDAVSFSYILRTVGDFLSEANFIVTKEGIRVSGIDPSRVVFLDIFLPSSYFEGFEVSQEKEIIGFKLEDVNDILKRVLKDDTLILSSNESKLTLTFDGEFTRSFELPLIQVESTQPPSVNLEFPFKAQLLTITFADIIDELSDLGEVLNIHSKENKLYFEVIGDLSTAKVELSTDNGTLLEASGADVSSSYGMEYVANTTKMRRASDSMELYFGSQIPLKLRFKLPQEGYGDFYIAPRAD
T2 sequence 4: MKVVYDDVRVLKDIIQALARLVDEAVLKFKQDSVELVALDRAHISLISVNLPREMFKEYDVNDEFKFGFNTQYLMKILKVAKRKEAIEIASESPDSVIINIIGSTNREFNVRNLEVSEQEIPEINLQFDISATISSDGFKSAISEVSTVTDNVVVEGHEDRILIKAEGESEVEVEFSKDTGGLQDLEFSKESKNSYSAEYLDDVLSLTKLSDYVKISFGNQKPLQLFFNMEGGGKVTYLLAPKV

XPF-wt [3] = target: T3, XPF-wt (Saccharolobus (Sulfolobus) solfataricus, UniProt Q7LXL5 1-233)
T3 sequence: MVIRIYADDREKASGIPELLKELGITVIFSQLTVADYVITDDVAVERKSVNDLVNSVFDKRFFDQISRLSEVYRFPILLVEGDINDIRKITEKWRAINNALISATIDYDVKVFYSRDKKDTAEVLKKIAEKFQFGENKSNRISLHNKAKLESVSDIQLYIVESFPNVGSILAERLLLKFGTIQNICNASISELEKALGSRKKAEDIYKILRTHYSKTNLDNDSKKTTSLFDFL

XPF-Δnuc (HhH2 domain) [4] = target: T4, XPF-Δnuc (HhH2 domain) (Sulfolobus solfataricus P2, UniProt Q7LXL5 =M+148-233, internal_change)
T4 sequence: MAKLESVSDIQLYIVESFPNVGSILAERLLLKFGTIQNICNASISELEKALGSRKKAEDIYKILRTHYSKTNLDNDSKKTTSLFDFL

XPF-ΔPIP (Δ6 XPF) [5] = target: T5, XPF-ΔPIP (Δ6 XPF) (Sulfolobus solfataricus, UniProt Q7LXL5 1-227)
T5 sequence: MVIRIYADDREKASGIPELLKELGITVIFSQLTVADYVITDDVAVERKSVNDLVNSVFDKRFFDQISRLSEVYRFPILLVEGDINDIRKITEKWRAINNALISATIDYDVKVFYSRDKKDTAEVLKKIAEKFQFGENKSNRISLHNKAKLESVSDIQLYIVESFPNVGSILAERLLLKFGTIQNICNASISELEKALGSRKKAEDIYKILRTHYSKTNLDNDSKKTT

XPF-wt [6] = target: T3, XPF-wt; remark: listed apart in the source
XPF-ΔPIP (Δ6 XPF) [7] = target: T5, XPF-ΔPIP (Δ6 XPF); remark: listed apart in the source
XPF-ΔPIP (Δ6 XPF) [8] = target: T5, XPF-ΔPIP (Δ6 XPF); remark: listed apart in the source
XPF-wt;PCNA heterotrimer [9] = target: T2, XPF-wt;PCNA heterotrimer; remark: listed apart in the source
XPF-Δnuc (HhH2 domain) [10] = target: T4, XPF-Δnuc (HhH2 domain); remark: listed apart in the source

B1: 3' flap, three vectors (global fit) (structured_DNA)
DNA 1: AGCCCGACAGCAGTCAGAGCTTGCTAGGACGGACGGT
DNA 2: ACCGTCCGTCCTAGCAAGCATTTTTTT
DNA 3: TCTGACTGCTGTCGGGCT
modifications: dye positions as in Flap-12, Flap-13 and Flap-23
In the case of B1, the Kd [1] is reported as 110 ± 10 nM, the Kd (XPF-wt;PCNA heterotrimer [2]) is reported as 60 ± 10 nM and the Kd (XPF-wt [3]) is reported as 5300 ± 600 nM. For the same binder, the Kd (XPF-Δnuc (HhH2 domain) [4]) was 8000 ± 1000 nM and the Kd (XPF-ΔPIP (Δ6 XPF) [5]) was 3100 ± 500 nM.

B2: Flap-12 (structured_DNA)
DNA 1: AGCCCGACAGCAGTCAGAGCTTGCTAGGACGGACGGT
DNA 2: ACCGTCCGTCCTAGCAAGCATTTTTTT
DNA 3: TCTGACTGCTGTCGGGCT
modifications: internal fluorescein-dT at T9 of B strand; 3' amino modifier on B strand
For B2, the Kd (XPF-wt [6]) was 2600 ± 400 nM and the Kd (XPF-ΔPIP (Δ6 XPF) [7]) was 1600 ± 600 nM.

B3: Flap-23 (structured_DNA)
DNA 1: AGCCCGACAGCAGTCAGAGCTTGCTAGGACGGACGGT
DNA 2: ACCGTCCGTCCTAGCAAGCATTTTTTT
DNA 3: TCTGACTGCTGTCGGGCT
modifications: 3' Cy3 on B strand; internal fluorescein-dT at T10 of C strand
With B3 the Kd (XPF-wt [6]) was 5000 ± 600 nM, the Kd (XPF-ΔPIP (Δ6 XPF) [8]) was 1600 ± 200 nM and the Kd (XPF-ΔPIP (Δ6 XPF) [7]) was 1800 ± 300 nM. It also gave a Kd (XPF-wt;PCNA heterotrimer [9]) of 50 ± 10 nM.

B4: Flap-13 (structured_DNA)
DNA 1: AGCCCGACAGCAGTCAGAGCTTGCTAGGACGGACGGT
DNA 2: ACCGTCCGTCCTAGCAAGCATTTTTTT
DNA 3: TCTGACTGCTGTCGGGCT
modifications: amino-C6-dT at T9 of B strand; internal fluorescein-dT at T10 of C strand
B4 showed a Kd (XPF-wt [6]) of 9200 ± 3000 nM, a Kd (XPF-Δnuc (HhH2 domain) [10]) of 8000 ± 2000 nM and a Kd (XPF-wt;PCNA heterotrimer [9]) of 60 ± 10 nM.
